Assay results from PMC7785020, “A unique hormonal recognition feature of the human glucagon-like peptide-2 receptor” (Cell Research, 2020).
Substitutions are numbered along the chain they refer to.

Legend:
GLP-2R W340^5.36A = target: T1, GLP-2R W340^5.36A (Homo sapiens, UniProt O95838, W340A); test: cAMP accumulation, W340^5.36A; format: cell-based; design: WT (1–553); expressed in transfected cells; HEK 293T (cAMP); conditions: Table S3, W340A; HEK 293T, 30 min, RT; mean ± SEM, n ≥ 3 in duplicate; read-out: cAMP Emax (% WT)
T1 sequence (O95838 1-553 W340A): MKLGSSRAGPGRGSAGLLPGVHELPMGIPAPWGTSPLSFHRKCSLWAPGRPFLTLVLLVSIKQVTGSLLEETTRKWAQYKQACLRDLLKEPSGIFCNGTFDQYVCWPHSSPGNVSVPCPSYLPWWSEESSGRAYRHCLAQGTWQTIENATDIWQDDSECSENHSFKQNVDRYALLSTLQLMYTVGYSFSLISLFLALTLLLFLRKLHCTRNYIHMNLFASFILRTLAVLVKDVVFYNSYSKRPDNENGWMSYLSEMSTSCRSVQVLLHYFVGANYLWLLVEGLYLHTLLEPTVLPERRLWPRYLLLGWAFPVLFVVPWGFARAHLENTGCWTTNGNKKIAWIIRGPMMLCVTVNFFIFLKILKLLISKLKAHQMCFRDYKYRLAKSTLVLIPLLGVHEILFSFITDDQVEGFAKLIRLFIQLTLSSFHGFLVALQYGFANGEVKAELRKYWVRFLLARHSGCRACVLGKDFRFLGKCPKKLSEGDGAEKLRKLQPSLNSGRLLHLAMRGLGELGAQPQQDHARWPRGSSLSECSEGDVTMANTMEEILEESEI
Procedure: (§1) HEK 293T cells were cultured in Dulbecco’s Modified Eagle’s Medium (DMEM) (Gibco, Waltham, USA) supplemented with 10% (v/v) fetal bovine serum (FBS) (Gibco) and 1% (v/v) sodium pyruvate (Gibco) at 37 °C, 5% CO2 in a humidified incubator. They were seeded onto 6-well cell culture plates and transiently transfected with different GLP-2R constructs using Lipofectamine 2000 transfection reagent (Invitrogen, Carlsbad, CA, USA). After 24 h, the transfected cells were seeded onto 384-well microtiter plates (3000 cells per well) in HBSS supplemented with 5 mM HEPES, 0.1% (w/v) bovine serum albumin (BSA) and 0.5 mM 3-isobutyl-1- methylxanthine, and stimulated with increasing concentrations of GLP-2 for 30 min at RT. Eu and Ulight were diluted by cAMP detection buffer and added to the plates separately to terminate the reaction. Plates were incubated at RT for 60 min before measuring the fluorescence intensity at 620 nm and […] by an EnVision multilabel plate reader (PerkinElmer, Boston, USA).

GLP-2R H268^3.37A = target: T2, GLP-2R H268^3.37A (Homo sapiens, UniProt O95838, H268A); test: cAMP accumulation, H268^3.37A; format: cell-based; design: WT (1–553); expressed in transfected cells; HEK 293T (cAMP); conditions: Table S3, H268A; HEK 293T, 30 min, RT; mean ± SEM, n ≥ 3 in duplicate; read-out: cAMP Emax (% WT)
T2 sequence (O95838 1-553 H268A): T1 sequence (O95838 1-553 W340A) with H268A, A340W
Procedure: as §1

GLP-2R (1-490)-LgBiT = target: T3, GLP-2R (1-490)-LgBiT (Homo sapiens, UniProt O95838); test: cAMP accumulation, truncated construct; format: cell-based; conditions: Table S2, GLP-2R (1-490)-LgBiT; HEK 293T, 30 min, RT; mean ± SEM, n ≥ 3 in duplicate; read-out: cAMP accumulation Emax (% WT)
T3 construct: the C-terminus-truncated GLP-2R(1–490)-LgBiT; HA signal peptide (N); TEV site-OMBP-MBP (C); expressed in transfected cells; host or cells: HEK 293T
T3 sequence (O95838 1-490): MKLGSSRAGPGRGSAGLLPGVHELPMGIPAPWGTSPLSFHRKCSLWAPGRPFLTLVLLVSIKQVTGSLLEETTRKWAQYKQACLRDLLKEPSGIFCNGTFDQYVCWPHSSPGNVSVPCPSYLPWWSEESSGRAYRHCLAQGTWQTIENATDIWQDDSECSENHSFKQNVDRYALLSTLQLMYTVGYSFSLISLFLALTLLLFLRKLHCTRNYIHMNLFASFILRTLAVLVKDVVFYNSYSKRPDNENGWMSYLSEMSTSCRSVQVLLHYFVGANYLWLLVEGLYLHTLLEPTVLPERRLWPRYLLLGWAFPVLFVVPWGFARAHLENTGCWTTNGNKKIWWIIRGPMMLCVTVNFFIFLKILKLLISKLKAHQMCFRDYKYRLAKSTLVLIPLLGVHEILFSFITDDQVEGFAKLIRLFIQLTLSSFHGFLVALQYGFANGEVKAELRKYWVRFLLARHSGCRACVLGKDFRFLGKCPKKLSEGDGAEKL
Procedure: as §1

[1] = target: GLP-2R N334^ECL2 A (human) (UniProt O95838); test: radioligand binding; competition on transiently transfected COS-7 cells: unlabeled teduglutide 0.1 nM to 1 μM against 10–15 pM [125I]GLP-2(1–33, M10Y); 4 h, 4 °C; 50 mM HEPES pH 7.4, 1 mM CaCl2, 5 mM MgCl2, 0.5% BSA; three-parameter logistic fit
[2] = target: GLP-2R Y182^1.43A (human) (UniProt O95838); test: as above
[3] = target: GLP-2R W340^5.36A (human) (UniProt O95838); test: as above
[4] = target: GLP-2R Y252^ECL1A (human) (UniProt O95838); test: as above

Row | % Binding of WT [1] [%] | % Binding of WT [2] [%] | % Binding of WT [3] [%] | % Binding of WT [4] [%] | Compound | Emax (GLP-2R W340^5.36A) [%] | Emax (GLP-2R H268^3.37A) [%] | Emax (GLP-2R (1-490)-LgBiT) [%]
1 |  |  |  |  | CC[C@H](C)[C@H](NC(=O)[C@H](Cc1ccccc1)NC(=O)[C@H](CC(=O)O)NC(=O)[C@H](CCCNC(=N)N)NC(=O)[C@H](C)NC(=O)[C@H](C)NC(=O)[C@H](CC(C)C)NC(=O)[C@H](CC(N)=O)NC(=O)[C@H](CC(=O)O)NC(=O)[C@H](CC(C)C)NC(=O)[C@@H](NC(=O)[C@@H](NC(=O)[C@H](CC(N)=O)NC(=O)[C@H](CCSC)NC(=O)[C@H](CCC(=O)O)NC(=O)[C@H](CC(=O)O)NC(=O)[C@H](CO)NC(=O)[C@H](Cc1ccccc1)NC(=O)[C@H](CO)NC(=O)CNC(=O)[C@H](CC(=O)O)NC(=O)[C@H](C)NC(=O)[C@@H](N)Cc1c[nH]cn1)[C@@H](C)O)[C@@H](C)CC)C(=O)N[C@@H](CC(N)=O)C(=O)N[C@@H](Cc1c[nH]c2ccccc12)C(=O)N[C@@H](CC(C)C)C(=O)N[C@H](C(=O)N[C@@H](CCC(N)=O)C(=O)N[C@H](C(=O)N[C@@H](CCCCN)C(=O)N[C@H](C(=O)N[C@H](C(=O)N[C@@H](CC(=O)O)C(=O)O)[C@@H](C)O)[C@@H](C)CC)[C@@H](C)O)[C@@H](C)CC [Human GLP-2 (1–33)] | 107 ± 3.6 | 118 ± 22.6 | 85.3 ± 4
2 | 2 | 3.2 | 8.6 | 6.3 | [^125I]GLP-2(1–33, M10Y) (peptide) |  |  | 
